In assay [1] the target is T1, human IL-4R alpha (human, UniProt P24394 26-825). The assay is described as follows: cell-based or functional assay.
The target of assay [2] is T1, human IL-4R alpha. The assay is described as follows: cell-based or functional assay. The source holds these as a separate data set.
Assay [3] addresses T2, recombinant human TSLP (glycosylated long form) (human, UniProt Q969D9 29-159). The assay is described as follows: cell-based or functional assay.
Assay [4] has as its target T2, recombinant human TSLP (glycosylated …). The assay can be described thus: cell-based or functional assay. The source holds these as a separate data set.
The target is the same in assay [5]. The assay is described as follows: cell-based or functional assay. The source holds these as a separate data set.
Assay [6] has the same target. The assay is described as follows: competition ELISA on coated TSLP; competitor biotinylated TSLP-0001 (69 pM). For orientation: In an ELISA, binding on a coated surface is turned into a signal by an enzyme label.
The next assay addresses T3, human TSLP short form (human, UniProt Q969D9-2 1-63, limits assumed).
T3 construct: also called sfTSLP; TSLPsf Avi V5 His 10 Biotin
The assay is described as follows: SPR (Biacore 8K, 37 C), antibody captured on anti-Fab antibody on a CM5 chip, 300 nM short form TSLP injected (concentration from Example 79).

The next assay concerns the target T4, human IL-4 (human, UniProt P05112 25-153).
T4 sequence (looked up): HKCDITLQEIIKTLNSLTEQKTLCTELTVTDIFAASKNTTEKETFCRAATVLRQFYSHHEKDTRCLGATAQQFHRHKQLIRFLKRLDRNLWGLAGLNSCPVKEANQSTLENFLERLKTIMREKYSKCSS
The assay is described as follows: cell-based or functional assay.

The next assay has as its target human IL-13 (human, UniProt P35225 35-146). The assay can be described thus: cell-based or functional assay.
For assay [7], the target named is T5, recombinant human IL-33 (wild type, Ser112-Thr270) (human, UniProt O95760 112-270).
T5 sequence (looked up): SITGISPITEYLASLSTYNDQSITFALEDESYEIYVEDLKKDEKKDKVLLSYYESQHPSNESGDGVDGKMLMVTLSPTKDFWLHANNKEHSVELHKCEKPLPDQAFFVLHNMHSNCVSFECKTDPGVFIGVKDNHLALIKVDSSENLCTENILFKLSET
The assay is described as follows: cell-based or functional assay.

Assay [8] addresses T6, recombinant human IL-33 (R&D Systems 3625-IL) (human, UniProt O95760 112-270, limits assumed).
T6 sequence (looked up): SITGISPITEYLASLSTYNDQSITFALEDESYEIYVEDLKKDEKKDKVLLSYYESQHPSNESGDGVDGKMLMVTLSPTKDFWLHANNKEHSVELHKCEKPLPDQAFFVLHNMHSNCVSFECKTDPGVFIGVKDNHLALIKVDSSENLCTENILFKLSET
The assay is described as follows: cell-based or functional assay.

The target of assay [9] is T7, cynomolgus monkey IL-33 (Pfizer) (cynomolgus monkey, UniProt A0A2K5W3I1 112-269).
T7 sequence: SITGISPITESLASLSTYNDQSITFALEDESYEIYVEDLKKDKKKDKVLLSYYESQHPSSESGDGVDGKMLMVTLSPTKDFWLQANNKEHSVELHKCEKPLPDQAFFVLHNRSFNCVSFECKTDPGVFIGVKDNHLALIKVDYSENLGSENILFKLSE
The assay can be described thus: cell-based or functional assay.

For assay [10], the target named is T6, recombinant human IL-33 (R&D Systems …). The assay can be described thus: cell-based or functional assay. The source holds these as a separate data set.

Data on five molecules can be found in patent US20240117030A1 (Pfizer, published 2024).

B1: Dupilumab (antibody, V domains shown)
VH: EVQLVESGGGLEQPGGSLRLSCAGSGFTFRDYAMTWVRQAPGKGLEWVSSISGSGGNTYYADSVKGRFTISRDNSKNTLYLQMNSLRAEDTAVYYCAKDRLSITIRPRYYGLDVWGQGTTVTVSS
VL: DIVMTQSPLSLPVTPGEPASISCRSSQSLLYSIGYNYLDWYLQKSGQSPQLLIYLGSNRASGVPDRFSGSGSGTDFTLKISRVEAEDVGFYYCMQALQTPYTFGQGTKLEIKR
For B1, the “IC50 (median), IL-4 induced CD23 expression on human monocytes” value in the assay with human IL-4R alpha [1] was 104 pM. Besides, in the assay with human IL-4R alpha [2], the “IC50 (median), IL-13 induced CD23 expression on human monocytes” value was found to be 93.2 pM.

B2: TSLP-0100 (antibody, human IgG1, V domains shown)
VH: QMQLVESGGGVVQPGRSLRLSCAASGFTFRTYGMHWVRQAPGKGLEWVAVIWYDGSNKHYADSVKGRFTISRDNSKNTLYLQMNSLRAEDTAVYYCARAPQWELVHEAFDIWGQGTMVTVSS
VL: SYVLTQPPSVSVAPGQTARITCGGNNLGSKSVHWYQQKPGQAPVLVVYDDSDRPSWIPERFSGSNSGNTATLTISRGEAGDEADYYCQVWDSSSDHVVFGGGTKLTVLG
notes: also called IL413TSLP-0100
A word on the IC50: it is the midpoint of a concentration-inhibition curve. Regarding B2, the “a-TSLP bioassay (IC50, pM)” value in [3] turned out to be 24.6 pM. Also, the “a-TSLP TARC bioassay (fold change to TSLP-0001)” value in [4] amounted to 0.9 fold. Besides, the “anti-hTSLP TARC bioactivity (fold change to TSLP-0001)” value in [5] amounted to 0.9 fold. In addition, the IC50 in assay [6] came to 870 pM.

B3: TSLP-0875 (antibody, human IgG1, lambda, V domains shown)
VH: QMQLVESGGGVVQPGRSLRLSCAASGFTFRTYGMHWVRQAPGKGLEWVAVIWYDGSNKHYADSVKGRFTISRDNSKNTLYLQMNSLRAEDTAVYYCARAPQWYLVHEAFDIWGQGTMVTVSS
VL: SYVLTQPPSVSVAPGQTARITCGGNNLGSKSVHWYQQKPGQAPVLVVYDDKDRPSWIPERFSGSNSGNTATLTISRGEAGDEADYYCQVWDSKSDHVVFGGGTKLTVLG
In the case of B3, in the assay with human TSLP short form, the binding result is recorded as “no binding (tested: 300 nM)”.

B4: IL13433-1042 (other)
heavy: EVQLVESGGGLVQPGGSLRLSCAASGFTFSSYWMYWVRQAPGKGLEWVAAITPNAGEDYYPESVKGRFTISRDNAKNSLYLQMNSLRAEDTAVYYCARGQYYYTKYSLGYWGQGTLVTVSSASTKGPSVFPLAPSSKSTSGGTAALGCLVKDYFPEPVTVSWNSGALTSGVHTFPAVLQSSGLYSLSSVVTVPSSSLGTQTYICNVNHKPSNTKVDKKVEPKSCRKTHTCPRCPAPEAAGAPSVFLFPPKPKDTLMISRTPEVTCVVVDVSHEDPEVKFNWYVDGVEVHNAKTKPREEQYNSTYRVVSVLTVLHQDWLNGKEYKCKVSNKALPAPIEKTISKAKGQPREPQVYTLPPSREEMTKNQVSLTCLVKGFYPSDIAVEWESNGQPENNYKTTPPVLDSDGSFFLYSRLTVDKSRWQQGNVFSCSVLHEALHSHYTQKSLSLSPGK
chain 1: DIQMTQSPSSLSASVGDRVTITCKASESVDHFGWSLVHWYQQKPGKAPKLLIYRASNLESGVPSRFSGSGSGTDFTLTISSLQPEDFATYYCQQSNEDPWTFGGGTKVEIKRTVAAPSVFIFPPSDEQLKSGTASVVCLLNNFYPREAKVQWKVDNALQSGNSQESVTEQDSKDSTYSLSSTLTLSKADYEKHKVYACEVTHQGLSSPVTKSFNRGECGGGGSEVTLRESGPALVKPTQTLTLTCTFSGFSLSNFGEGLSWIRQPPGKGLEWLAHIYWDDDKRYNPSLKSRLTISKDTSRNQVVLTMTNMDPVDTATYYCARRETVFYWYFDVWGQGTTVTVSSASTKGPSVFPLAPSSKSTSGGTAALGCLVKDYFPEPVTVSWNSGALTSGVHTFPAVLQSSGLYSLSSVVTVPSSSLGTQTYICNVNHKPSNTKVDKKVEPKSCEKTHTCPECPAPEAAGAPSVFLFPPKPKDTLMISRTPEVTCVVVDVSHEDPEVKFNWYVDGVEVHNAKTKPREEQYNSTYRVVSVLTVLHQDWLNGKEYKCKVSNKALPAPIEKTISKAKGQPREPQVYTLPPSREEMTKNQVSLTCEVKGFYPSDIAVEWESNGQPENNYKTTPPVLDSDGSFFLYSKLTVDKSRWQQGNVFSCSVLHEALHSHYTQKSLSLSPGK
light 1: DIQMTQSPSSLSASVGDRVTITCRASQPIHNHLDWYQQKPGKAPKLLIYFGKNLQEGVPSRFSGSGSGTDFTLTISSLQPEDFATYYCFQYKKGWSFGGGTKVEIKRTVAAPSVFIFPPSDEQLKSGTASVVCLLNNFYPREAKVQWKVDNALQSGNSQESVTEQDSKDSTYSLSSTLTLSKADYEKHKVYACEVTHQGLSSPVTKSFNRGEC
light 2: DIQMTQSPSSLSASVGDRVTITCRASQSVDEEGDSYMNWYQQKPGKAPKLLIYAASNLESGVPSRFSGSGSGTDFTLTISSLQPEDFATYYCQQSNEDPPTFGGGTKVEIKRTVAAPSVFIFPPSDEQLKSGTASVVCLLNNFYPREAKVQWKVDNALQSGNSQESVTEQDSKDSTYSLSSTLTLSKADYEKHKVYACEVTHQGLSSPVTKSFNRGEC
chain 2: EVQLVESGGGLVQPGGSLRLSCAASGFTFSSYAMSWVRQAPGKGLEWVASISSGDTTYYPDSVKGRFTISRDNAKNSLYLQMNSLRAEDTAVYYCARNEGYYFGLTLWGQGTLVTVSSASTKGPSVFPLAPSSKSTSGGTAALGCLVKDYFPEPVTVSWNSGALTSGVHTFPAVLQSSGLYSLSSVVTVPSSSLGTQTYICNVNHKPSNTKVDKKVEPKSC
On to B4, for which the “a-hIL-4 IC50 [pM]” value in the assay with human IL-4 stood at 7.1 pM. For the same molecule, the “a-hIL-13 IC50 [pM]” value in the assay with human IL-13 was 12.4 pM. For the same molecule, the “a-IL-33 bioassay (WT) IC50 [pM]” value in assay [7] stood at 28 pM.

B5: IL13433-1258 (antibody)
heavy: EVQLVESGGGLVQPGGSLRLSCAASGFTFSSYWMYWVRQAPGKGLEWVAAITPNAGEDYYPESVKGRFTISRDNAKNSLYLQMNSLRAEDTAVYYCARGQYYYTKYSLGYWGQGTLVTVSSASTKGPSVFPLAPSSKSTSGGTAALGCLVKDYFPEPVTVSWNSGALTSGVHTFPAVLQSSGLYSLSSVVTVPSSSLGTQTYICNVNHKPSNTKVDKKVEPKSCRKTHTCPPCPAPEAAGAPSVFLFPPKPKDTLMISRTPEVTCVVVDVSHEDPEVKFNWYVDGVEVHNAKTKPREEQYNSTYRVVSVLTVLHQDWLNGKEYKCKVSNKALPAPIEKTISKAKGQPREPQVYTLPPSREEMTKNQVSLTCLVKGFYPSDIAVEWESNGQPENNYKTTPPVLDSDGSFFLYSRLTVDKSRWQQGNVFSCSVLHEALHSHYTQKSLSLSPGK
light 1: DIQMTQSPSSLSASVGDRVTITCRASQPIHNHLDWYQQKPGKAPKLLIYFGKNLQEGVPSRFSGSGSGTDFTLTISSLQPEDFATYYCFQYKKGWSFGGGTKVEIKRTVAAPSVFIFPPSDEQLKSGTASVVCLLNNFYPREAKVQWKVDNALQSGNSQESVTEQDSKDSTYSLSSTLTLSKADYEKHKVYACEVTHQGLSSPVTKSFNRGEC
chain 1: DIQMTQSPSSLSASVGDRVTITCKASESVDHFGWSLVHWYQQKPGKAPKLLIYRASNLESGVPSRFSGSGSGTDFTLTISSLQPEDFATYYCQQSNEDPWTFGGGTKVEIKRTVAAPSVFIFPPSDEQLKSGTASVVCLLNNFYPREAKVQWKVDNALQSGNSQESVTEQDSKDSTYSLSSTLTLSKADYEKHKVYACEVTHQGLSSPVTKSFNRGECGGGGSEVTLRESGPALVKPTQTLTLTCTFSGFSLSNFGEGLSWIRQPPGKGLEWLAHIYWDDDKRYNPSLKSRLTISKDTSRNQVVLTMTNMDPVDTATYYCARRETVFYWYFDVWGQGTTVTVSSASTKGPSVFPLAPSSKSTSGGTAALGCLVKDYFPEPVTVSWNSGALTSGVHTFPAVLQSSGLYSLSSVVTVPSSSLGTQTYICNVNHKPSNTKVDKKVEPKSCEKTHTCPPCPAPEAAGAPSVFLFPPKPKDTLMISRTPEVTCVVVDVSHEDPEVKFNWYVDGVEVHNAKTKPREEQYNSTYRVVSVLTVLHQDWLNGKEYKCKVSNKALPAPIEKTISKAKGQPREPQVYTLPPSREEMTKNQVSLTCEVKGFYPSDIAVEWESNGQPENNYKTTPPVLDSDGSFFLYSKLTVDKSRWQQGNVFSCSVLHEALHSHYTQKSLSLSPGK
light 2: DIQMTQSPSSLSASVGDRVTITCRASQSVDEEGDSYMNWYQQKPGKAPKLLIYAASNLESGVPSRFSGSGSGTDFTLTISSLQPEDFATYYCQQSNKDPPTFGGGTKVEIKRTVAAPSVFIFPPSDEQLKSGTASVVCLLNNFYPREAKVQWKVDNALQSGNSQESVTEQDSKDSTYSLSSTLTLSKADYEKHKVYACEVTHQGLSSPVTKSFNRGEC
chain 2: EVQLVESGGGLVQPGGSLRLSCAASGFTFSSYAMSWVRQAPGKGLEWVASISSGDTTYYPDSVKGRFTISRDNAKNSLYLQMNSLRAEDTAVYYCARNEGYYFGLTLWGQGTLVTVSSASTKGPSVFPLAPSSKSTSGGTAALGCLVKDYFPEPVTVSWNSGALTSGVHTFPAVLQSSGLYSLSSVVTVPSSSLGTQTYICNVNHKPSNTKVDKKVEPKSC
Consider B5, for which the entries for the “IC50, IL-33-induced SEAP activity in HEK-Blue IL-33 SEAP cells (median)” value in assay [8] and in assay [9] were 13.4 pM and 274 pM, respectively. The “IC50 (pM) HEK-Blue IL-33 SEAP (mean)” value in assay [10] worked out at 13.4 pM.
